Target: PTH 1 receptor (PTH1R), his-tagged (UniProt Q03431)
Test: BLI

Chain of UniProt Q03431 (Q03431 27-593): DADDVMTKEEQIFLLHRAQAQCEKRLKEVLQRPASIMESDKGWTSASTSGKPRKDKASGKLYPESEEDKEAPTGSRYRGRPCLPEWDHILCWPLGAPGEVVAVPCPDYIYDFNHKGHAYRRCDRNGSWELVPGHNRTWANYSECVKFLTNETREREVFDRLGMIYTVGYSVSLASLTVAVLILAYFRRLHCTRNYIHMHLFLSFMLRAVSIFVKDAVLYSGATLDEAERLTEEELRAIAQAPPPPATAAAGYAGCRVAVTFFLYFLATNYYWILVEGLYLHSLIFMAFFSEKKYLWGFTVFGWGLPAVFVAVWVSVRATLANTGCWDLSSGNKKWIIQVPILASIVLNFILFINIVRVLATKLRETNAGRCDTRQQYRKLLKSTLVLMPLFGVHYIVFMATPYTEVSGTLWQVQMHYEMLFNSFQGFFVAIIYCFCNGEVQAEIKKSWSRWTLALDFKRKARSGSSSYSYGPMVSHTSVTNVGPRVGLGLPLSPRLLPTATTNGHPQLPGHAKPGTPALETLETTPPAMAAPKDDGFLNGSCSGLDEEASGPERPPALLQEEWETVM

In the case of PTH-Fc fusion protein, the Kd is reported as 2300 nM.
With “Parathyroid Hormone PTH (1-34) (peptide)” the Kd was 2310 nM.
